Our source for the self-cleavage values is the RNAGym collection of RNA variant scans (doi:10.7554/elife.80360).

First the molecules themselves.
B1: Hairpin Ribozyme (parent)
chain: GUCCUCUUUCACGUGCGCGUGAAAGAGAGAAGUGAACCAGAGAAACACACGUUGUGGUAUAUUACCUGGUA

Variants of B1 are the subject of the series. Nature of the series: self-cleavage, relative activity (ratio to wild type); higher = more cleavage; co-transcriptional.
Take A23C A43U: the self-cleavage is 0.115.
Next, A23C C46G: 0.092.
With A22G G69C the figure was 0.209.
As to A22U U62C, the self-cleavage amounted to 0.127.
In the case of A22U U62A, the self-cleavage was 0.161.
For the variant G21C A59G, the self-cleavage turned out to be 0.206.
As for G21C A59U, the self-cleavage turned out to be 0.204.
Consider G21C A24C, for which the self-cleavage worked out at 0.556.
Turning to G21C A24G, the self-cleavage worked out at 0.555.
As to A22U U60C, the self-cleavage was determined as 0.719.
With A22U U60G the figure was 0.611.
On to A23C A36C, for which the self-cleavage amounted to 0.286.
For the variant A23C A36U, the self-cleavage came to 0.475.
Take A23C A61C: the self-cleavage was 0.143.
On to G21U U52C, for which the self-cleavage stood at 0.764.
Regarding G21U U52A, the self-cleavage was determined as 0.806.
Regarding A23G C50G, the self-cleavage amounted to 0.153.
With G21U C46A the figure was 0.0942; with G21U C46U, 0.128.
For the variant A22C U70G, the self-cleavage was determined as 0.763.
Next, A23C A47G: 0.132; A22C A36U: 0.581.
With A22C A36C the figure was 0.559; with A22C G42C, 0.291; with G21C A36G, 0.779.
Regarding G21A U70A, the self-cleavage stood at 0.742.
As for G21U A49C, the self-cleavage turned out to be 0.219.
With A22G A47C the figure was 0.27; with A23C U53G, 0.562.
Next, A23C U53C: 0.702; G21A U67G: 0.241.
Next, G21C U60G: 0.55; A23G C37A: 0.287.
Take A23G C37G: the self-cleavage stood at 0.311.
Regarding G21C G32A, the self-cleavage is 0.141.
For the variant G21C G32U, the self-cleavage worked out at 0.0815.
With A23C A35G the figure was 0.942; with A23C A64G, 0.646.
As to A22G G32C, the self-cleavage worked out at 0.0859.
With G21C A26U the figure was 0.57; with A22C U63C, 0.203; with A23G C46A, 0.132.
On to A23G C46G, for which the self-cleavage is 0.245.
With G21C G25U the figure was 0.399; with G21C G25A, 0.165.
Consider A22C G27U, for which the self-cleavage was determined as 0.411.
For A23G U33C, the self-cleavage is 0.0496.
Next, A23G A26G: 0.648; A23G A26C: 0.524; G21U C50A: 0.194.
Turning to A23G G68U, the self-cleavage was 0.198.
In the case of A23G G68A, the self-cleavage amounted to 0.311.
With A23G G68C the figure was 0.101; with A22U A31U, 0.12.
Turning to A22U A31G, the self-cleavage was 0.589.
A22U G68U: the self-cleavage was 0.188.
Turning to A22U G68A, the self-cleavage was 0.389.
For the variant G21U A41C, the self-cleavage is 1.12.
For the variant G21U A41U, the self-cleavage amounted to 1.24.
For the variant A22G G29C, the self-cleavage was 0.129.
With G21U U67C, the self-cleavage worked out at 0.23.
As for A23C C50G, the self-cleavage was found to be 0.259.
On to A23C C50A, for which the self-cleavage was 0.318.
For A23C C50U, the self-cleavage came out at 0.373.
Next, A23C A59C: 0.193; A23C A59G: 0.143.
As to A22G G68U, the self-cleavage was determined as 0.362.
Next, A22G G68C: 0.182; A22G G68A: 0.307; A22G U62G: 0.122.
Consider A22G U62A, for which the self-cleavage was determined as 0.189.
Regarding A22U U70A, the self-cleavage turned out to be 0.768.
As for A22U U70G, the self-cleavage stood at 0.674.
For A23G A31G, the self-cleavage is 0.416.
As for G21U U63A, the self-cleavage came to 0.105.
Next, A22U C48A: 0.16; G21U A24U: 0.78.
With A22U A30G, the self-cleavage turned out to be 0.159.
For A23G A28G, the self-cleavage stood at 1.23.
With G21C U58G the figure was 0.647; with A22U A61U, 0.198.
As for A22U A61G, the self-cleavage worked out at 0.155.
Regarding A22U A61C, the self-cleavage came out at 0.171.
With G21U G27C the figure was 0.172.
With G21A U60A the figure was 0.804.
As to G21C A30U, the self-cleavage worked out at 0.139.
Regarding G21C A30C, the self-cleavage turned out to be 0.242.
Next, A23C A71U: 0.832; G21U C65A: 0.996.
For A23G G51C, the self-cleavage came out at 0.91.
On to A23G G51A, for which the self-cleavage worked out at 0.781.
Regarding A23C C37A, the self-cleavage came out at 0.18.
A22G C38G: the self-cleavage stood at 0.185.
Consider A22G C38U, for which the self-cleavage was 0.589.
In the case of A22G A41G, the self-cleavage is 0.811.
In the case of G21U A47U, the self-cleavage stood at 0.123.
G21C C38U: the self-cleavage was 0.452.
As for A23C G56A, the self-cleavage turned out to be 0.187.
With A23G G69C, the self-cleavage is 0.303.
Regarding G21C C46G, the self-cleavage came out at 0.162.
With A22G G54A the figure was 0.428; with A22U A49U, 0.293; with G21U A36G, 1.07.
Regarding G21U A36C, the self-cleavage stood at 0.463.
Take G21U A36U: the self-cleavage came out at 0.661.
Next, A22U G25U: 0.253.
For the variant A23G U52G, the self-cleavage came out at 0.78.
In the case of G21U C38G, the self-cleavage stood at 0.167.
Consider G21U C38U, for which the self-cleavage was found to be 0.357.
For the variant A22C G32A, the self-cleavage was found to be 0.178.
On to A22C G32C, for which the self-cleavage was 0.106.
Turning to A22C G32U, the self-cleavage stood at 0.107.
Take A22U A41U: the self-cleavage stood at 1.14.
With A22U A41G, the self-cleavage stood at 0.776.
With G21U A23C the figure was 0.595; with A22C A43U, 0.15.
Next, A23C A31U: 0.179; A23C A31C: 0.185.
With A22C A44C the figure was 0.0803; with A22C G40U, 0.19; with A22U A28G, 1.13.
Turning to A22G G40A, the self-cleavage was 0.272.
On to A22G G40C, for which the self-cleavage turned out to be 0.146.
For the variant G21U U53G, the self-cleavage was 0.907.
As for G21U U53C, the self-cleavage came to 0.85.
On to A23C G29C, for which the self-cleavage worked out at 0.126.
Take G21C C37G: the self-cleavage came to 0.425.
As for A22G C46A, the self-cleavage was determined as 0.171.
Take A22C G57A: the self-cleavage worked out at 0.119.
For the variant A22U A36C, the self-cleavage was 0.589.
Regarding A22U A36G, the self-cleavage is 0.849.
Take A22U A59G: the self-cleavage came out at 0.117.
With A22U U33A the figure was 0.172; with A22U U55G, 0.298; with G21C A71C, 1.12.
Regarding A22C G68C, the self-cleavage was 0.247.
With A22U A44C, the self-cleavage stood at 0.239.
Next, A22U A44G: 0.113; A22C G25C: 0.182.
Regarding A22C G25U, the self-cleavage came out at 0.17.
As for A23G A30G, the self-cleavage was determined as 0.211.
As for A22U C38A, the self-cleavage worked out at 0.155.
With A22U C38U the figure was 0.41.
With A23C C66A the figure was 0.218; with A23C C66U, 0.448.
With G21U A26C, the self-cleavage is 0.123.
Next, G21A U63G: 0.118; G21A U63C: 0.155; G21C C66G: 0.159.
In the case of A22G A64U, the self-cleavage came to 0.173.
Turning to G21C G57U, the self-cleavage stood at 0.189.
With G21U A61U, the self-cleavage is 0.202.
With A23C G25A, the self-cleavage was determined as 0.235.
A22U G40U: the self-cleavage amounted to 0.115.
With A22U G40A the figure was 0.218; with A22U A26G, 0.743.
Turning to A22G U55A, the self-cleavage is 0.318.
Next, A22U A47U: 0.202.
Consider A22U A47C, for which the self-cleavage came out at 0.345.
On to G21C A23U, for which the self-cleavage is 0.5.
For G21C G68U, the self-cleavage turned out to be 0.289.
Regarding A22C G54C, the self-cleavage turned out to be 0.317.
Regarding A23C A45G, the self-cleavage worked out at 0.173.
For the variant G21A U52C, the self-cleavage is 0.817.
Turning to A23G G42C, the self-cleavage turned out to be 0.33.
As for A22C A71G, the self-cleavage was 0.945.
With A22C A71U, the self-cleavage amounted to 0.685.
